Source: publication doi:10.1101/2021.09.21.461191v4

Substrate: OC[C@@H](O)[C@H](O)[C@@H](O)CO
Experiment: cells, lysate or membranes
Settings: proton symport, membrane voltage -40 mV, external pH 5.5

B1: BvPMT5a (Beta vulgaris subsp. vulgaris) (protein)
chain: MSEGTNKAMSDPPPTTASKVIADFDPLKKPPKRNKFAFACATLASMTSVLLGYDIGVMSGAIIYLKEDWHISDTQIGVLVGILNIYCLFGSFAAGRTSDWIGRRYTIVLAGAIFFVGALLMGFATNYAFLMVGRFVTGIGVGYALMIAPVYTAEVSPASSRGFLTSFPEVFINAGILLGYISNLAFSSLPTHLSWRFMLGIGAIPSIFLAIGVLAMPESPRWLVMQGRLGDAKKVLNRISDSPEEAQLRLSEIKQTAGIPAECDEDIYKVEKTKIKSGNAVWKELFFNPTPAVRRAVIAGIGIHFFQQASGIDAVVLYSPRIFQSAGITNARKQLLATVAVGVVKTLFILVATFQLDKYGRRPLLLTSVGGMIIAILTLAMSLTVIDHSHHKITWAIALCITMVCAVVASFSIGLGPITWVYSSEVFPLRLRAQGTSMGVAVNRVVSGVISIFFLPLSHKITTGGAFFLFGGIAIIAWFFFLTFLPETRGRTLENMHELFEDFRWRESFPGNKSNNDENSTRKQSNGNDKSQVQLGETTTSTTVTNDNH
- Km: 2500 µM
